Test results reported in patent US20220402983A1 (Janssen / Centocor, published 2022).
Bridges are numbered along the chain shown (N, C = ends). [ ]: non-standard residue; d: D form. The star is where a group is joined. Trp(7-Me) = Cc1cccc2c(C[C@H](N)C(=O)O)c[nH]c12; 2Nal = N[C@@H](Cc1ccc2ccccc2c1)C(=O)O; AEF = NCCOc1ccc(C[C@H](N)C(=O)O)cc1; αMeY = C[C@](N)(Cc1ccc(O)cc1)C(=O)O; αMeF = C[C@](N)(Cc1ccccc1)C(=O)O; αMeE = C[C@](N)(CCC(=O)O)C(=O)O; Cit = NC(=O)NCCC[C@H](N)C(=O)O; αMeL = CC(C)C[C@](C)(N)C(=O)O; Pen = CC(C)(S)[C@H](N)C(=O)O; αMeK = C[C@](N)(CCCCN)C(=O)O; Ac6c = NC1(C(=O)O)CCCCC1; Thp = NC1(C(=O)O)CCOCC1; Abu = CC[C@H](N)C(=O)O; Aib = CC(C)(N)C(=O)O; Piv = CC(C)(C)C(=O)*; Tfa = O=C(C(F)(F)F)*

T1: human IL-23R (interleukin-23 receptor) (human, UniProt Q5VWK5 24-629)
T1 sequence (looked up): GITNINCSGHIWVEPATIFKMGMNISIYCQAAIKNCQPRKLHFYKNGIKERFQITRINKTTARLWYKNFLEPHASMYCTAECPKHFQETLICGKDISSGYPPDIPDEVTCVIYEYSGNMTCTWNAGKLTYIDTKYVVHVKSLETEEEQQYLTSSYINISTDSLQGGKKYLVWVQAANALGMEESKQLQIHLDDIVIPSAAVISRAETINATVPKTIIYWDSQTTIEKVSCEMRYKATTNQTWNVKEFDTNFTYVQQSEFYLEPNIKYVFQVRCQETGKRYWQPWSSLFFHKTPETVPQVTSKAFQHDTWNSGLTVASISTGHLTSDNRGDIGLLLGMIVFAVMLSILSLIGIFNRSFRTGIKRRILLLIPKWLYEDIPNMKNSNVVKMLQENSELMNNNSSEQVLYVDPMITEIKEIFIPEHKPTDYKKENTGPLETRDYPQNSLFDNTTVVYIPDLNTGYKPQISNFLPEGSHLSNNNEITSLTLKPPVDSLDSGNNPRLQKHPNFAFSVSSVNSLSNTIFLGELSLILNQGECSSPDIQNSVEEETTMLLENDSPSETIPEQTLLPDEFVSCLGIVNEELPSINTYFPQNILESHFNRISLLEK

B1: Compound No. 138 (peptide)
peptide: Ac-[Pen]NT[Trp(7-Me)]K(Ac)[Pen][AEF][2Nal][Thp]K(Tfa)N[αMeF]-NH2
modifications: disulfide 1-6
SMILES: CC(=O)NCCCC[C@@H]1NC(=O)[C@H](Cc2c[nH]c3c(C)cccc23)NC(=O)[C@H]([C@@H](C)O)NC(=O)[C@H](CC(N)=O)NC(=O)[C@@H](NC(C)=O)C(C)(C)SSC(C)(C)[C@@H](C(=O)N[C@@H](Cc2ccc(OCCN)cc2)C(=O)N[C@@H](Cc2ccc3ccccc3c2)C(=O)NC2(C(=O)N[C@@H](CCCCNC(=O)C(F)(F)F)C(=O)N[C@@H](CC(N)=O)C(=O)N[C@@](C)(Cc3ccccc3)C(N)=O)CCOCC2)NC1=O
B2: Compound No. 139 (peptide)
peptide: Ac-[Pen]NT[Trp(7-Me)]K(Ac)[Pen][AEF][2Nal][Thp]K(Piv)N[αMeF]-NH2
modifications: disulfide 1-6
SMILES: CC(=O)NCCCC[C@@H]1NC(=O)[C@H](Cc2c[nH]c3c(C)cccc23)NC(=O)[C@H]([C@@H](C)O)NC(=O)[C@H](CC(N)=O)NC(=O)[C@@H](NC(C)=O)C(C)(C)SSC(C)(C)[C@@H](C(=O)N[C@@H](Cc2ccc(OCCN)cc2)C(=O)N[C@@H](Cc2ccc3ccccc3c2)C(=O)NC2(C(=O)N[C@@H](CCCCNC(=O)C(C)(C)C)C(=O)N[C@@H](CC(N)=O)C(=O)N[C@@](C)(Cc3ccccc3)C(N)=O)CCOCC2)NC1=O
B3: Compound No. 140 (peptide)
peptide: Ac-[Pen]NT[Trp(7-Me)]K(Ac)[Pen][AEF][2Nal][Thp]K(Tfa)N[Thp]-NH2
modifications: disulfide 1-6
SMILES: CC(=O)NCCCC[C@@H]1NC(=O)[C@H](Cc2c[nH]c3c(C)cccc23)NC(=O)[C@H]([C@@H](C)O)NC(=O)[C@H](CC(N)=O)NC(=O)[C@@H](NC(C)=O)C(C)(C)SSC(C)(C)[C@@H](C(=O)N[C@@H](Cc2ccc(OCCN)cc2)C(=O)N[C@@H](Cc2ccc3ccccc3c2)C(=O)NC2(C(=O)N[C@@H](CCCCNC(=O)C(F)(F)F)C(=O)N[C@@H](CC(N)=O)C(=O)NC3(C(N)=O)CCOCC3)CCOCC2)NC1=O
B4: Compound No. 141 (peptide)
peptide: Ac-[Pen]NT[Trp(7-Me)]K(Ac)[Pen][AEF][2Nal][Thp]K(Piv)N[Thp]-NH2
modifications: disulfide 1-6
SMILES: CC(=O)NCCCC[C@@H]1NC(=O)[C@H](Cc2c[nH]c3c(C)cccc23)NC(=O)[C@H]([C@@H](C)O)NC(=O)[C@H](CC(N)=O)NC(=O)[C@@H](NC(C)=O)C(C)(C)SSC(C)(C)[C@@H](C(=O)N[C@@H](Cc2ccc(OCCN)cc2)C(=O)N[C@@H](Cc2ccc3ccccc3c2)C(=O)NC2(C(=O)N[C@@H](CCCCNC(=O)C(C)(C)C)C(=O)N[C@@H](CC(N)=O)C(=O)NC3(C(N)=O)CCOCC3)CCOCC2)NC1=O
B5: Compound No. 142 (peptide)
peptide: PentCO-[dR][Pen]NT[Trp(7-Me)]K(Ac)[Pen][AEF][2Nal][Thp]EN[αMeF]-NH2
modifications: disulfide 2-7
B6: Compound No. 146 (peptide)
peptide: FlagTag-[dR][Pen]NT[Trp(7-Me)]K(Ac)[Pen][AEF][2Nal][Thp]EN[Thp]-NH2
modifications: disulfide 2-7; also: FlagTag sequence not given here
B7: Compound No. 149 (peptide)
peptide: Ac-[dR][Pen]NT[Trp(7-Me)][Cit][Pen][AEF][2Nal][αMeL]EN[αMeF]-NH2
modifications: disulfide 2-7
SMILES: CC(=O)N[C@H](CCCNC(=N)N)C(=O)N[C@@H]1C(=O)N[C@@H](CC(N)=O)C(=O)N[C@@H]([C@@H](C)O)C(=O)N[C@@H](Cc2c[nH]c3c(C)cccc23)C(=O)N[C@@H](CCCNC(N)=O)C(=O)N[C@H](C(=O)N[C@@H](Cc2ccc(OCCN)cc2)C(=O)N[C@@H](Cc2ccc3ccccc3c2)C(=O)N[C@@](C)(CC(C)C)C(=O)N[C@@H](CCC(=O)O)C(=O)N[C@@H](CC(N)=O)C(=O)N[C@@](C)(Cc2ccccc2)C(N)=O)C(C)(C)SSC1(C)C
B8: Compound No. 150 (peptide)
peptide: Ac-[dR][Pen]NT[Trp(7-Me)]K(Ac)[Pen][AEF][2Nal][Thp][αMeE]N[αMeY]-NH2
modifications: disulfide 2-7
SMILES: CC(=O)NCCCC[C@@H]1NC(=O)[C@H](Cc2c[nH]c3c(C)cccc23)NC(=O)[C@H]([C@@H](C)O)NC(=O)[C@H](CC(N)=O)NC(=O)[C@@H](NC(=O)[C@@H](CCCNC(=N)N)NC(C)=O)C(C)(C)SSC(C)(C)[C@@H](C(=O)N[C@@H](Cc2ccc(OCCN)cc2)C(=O)N[C@@H](Cc2ccc3ccccc3c2)C(=O)NC2(C(=O)N[C@@](C)(CCC(=O)O)C(=O)N[C@@H](CC(N)=O)C(=O)N[C@@](C)(Cc3ccc(O)cc3)C(N)=O)CCOCC2)NC1=O
B9: Compound No. 151 (peptide)
peptide: Ac-[Pen]NT[Trp(7-Me)]K(Ac)[Pen][AEF][2Nal][αMeK]K(Ac)N[αMeY]-NH2
modifications: disulfide 1-6
SMILES: CC(=O)NCCCC[C@@H]1NC(=O)[C@H](Cc2c[nH]c3c(C)cccc23)NC(=O)[C@H]([C@@H](C)O)NC(=O)[C@H](CC(N)=O)NC(=O)[C@@H](NC(C)=O)C(C)(C)SSC(C)(C)[C@@H](C(=O)N[C@@H](Cc2ccc(OCCN)cc2)C(=O)N[C@@H](Cc2ccc3ccccc3c2)C(=O)N[C@@](C)(CCCCN)C(=O)N[C@@H](CCCCNC(C)=O)C(=O)N[C@@H](CC(N)=O)C(=O)N[C@@](C)(Cc2ccc(O)cc2)C(N)=O)NC1=O
B10: Compound No. 201 (peptide)
peptide: Ac-[dR][Abu]QT[Trp(7-Me)]K(Ac)C[AEF][2Nal][αMeK]K(Ac)N[αMeF]-NH2
modifications: thioether 2-7
B11: Compound No. 202 (peptide)
peptide: Ac-[Pen]NT[Trp(7-Me)][Cit][Pen][AEF][2Nal][αMeK]K(Ac)N[Aib][dY]-NH2
modifications: disulfide 1-6
SMILES: CC(=O)NCCCC[C@H](NC(=O)[C@](C)(CCCCN)NC(=O)[C@H](Cc1ccc2ccccc2c1)NC(=O)[C@H](Cc1ccc(OCCN)cc1)NC(=O)[C@H]1NC(=O)[C@H](CCCNC(N)=O)NC(=O)[C@H](Cc2c[nH]c3c(C)cccc23)NC(=O)[C@H]([C@@H](C)O)NC(=O)[C@H](CC(N)=O)NC(=O)[C@@H](NC(C)=O)C(C)(C)SSC1(C)C)C(=O)N[C@@H](CC(N)=O)C(=O)NC(C)(C)C(=O)N[C@H](Cc1ccc(O)cc1)C(N)=O
B12: Compound No. 301 (peptide)
peptide: Ac-[dR][Abu]QTWQC[AEF][2Nal][Ac6c][αMeE]NF[Aib][αMeK]-NH2
modifications: thioether 2-7
B13: Compound No. 302 (peptide)
peptide: Ac-[Pen]NT[Trp(7-Me)][Cit][Pen][AEF][2Nal][αMeK]K(Ac)N[Aib]-NH2
modifications: disulfide 1-6
SMILES: CC(=O)NCCCC[C@H](NC(=O)[C@](C)(CCCCN)NC(=O)[C@H](Cc1ccc2ccccc2c1)NC(=O)[C@H](Cc1ccc(OCCN)cc1)NC(=O)[C@H]1NC(=O)[C@H](CCCNC(N)=O)NC(=O)[C@H](Cc2c[nH]c3c(C)cccc23)NC(=O)[C@H]([C@@H](C)O)NC(=O)[C@H](CC(N)=O)NC(=O)[C@@H](NC(C)=O)C(C)(C)SSC1(C)C)C(=O)N[C@@H](CC(N)=O)C(=O)NC(C)(C)C(N)=O

Molecular target: T1, human IL-23R (interleukin-23 receptor)
Assay: cell-based or functional assay

| Binder | PBMC pSTAT3 IC50 (nM) | pStat3 HTRF (nM), IC50, DB cells IL23R pSTAT3 cell assay |
| --- | --- | --- |
| B1 | 7.6 nM |  |
| B2 | 6.6 nM |  |
| B3 | 2.6 nM |  |
| B4 | 3.7 nM |  |
| B5 | 4.9 nM |  |
| B6 | 8.9 nM |  |
| B7 | 2.3 nM |  |
| B8 | 4.7 nM |  |
| B9 | 5.7 nM |  |
| B10 |  | 12.7 nM |
| B11 |  | 0.637 nM |
| B12 | 24 nM |  |
| B13 | 7 nM |  |
